{
  "source": "patent US9289492B2",
  "about": "“Collecting ovarian cancer stem cells from ovarian cancer cells” (The General Hospital Corporation, priority 2007, dated 2016)",
  "key": {"MOVCAR 7 cells": {"test_system": "MOVCAR 7 cells", "test": "Hoechst 33342 side population flow cytometry with verapamil, MOVCAR 7", "format": "cell-based, mouse", "conditions": "MOVCAR 7, verapamil 25-50 μg/ml, Hoechst 33342 flow cytometry", "experimental": "(§1) Flow cytometry was performed in the Department of Pathology and Center for Regenerative Medicine Flow Cytometry Laboratory according to their published protocols (36). Mouse and human ovarian cancer SP sorting and immunophenotyping were performed as described in Supporting Methods, which is published as supporting information on the PNAS web site.\n(§2) SP cells were identified and electronically gated on a Digital Vantage cell sorter (Becton Dickinson) after excitation of the Hoechst dye with 150 mW of 350 nm UV light. SP fluorescence emissions were directed toward a 610-nm dichroic filter and captured simultaneously through both a blue (450-nm) band-pass and a red (675-nm) long-pass filter on a linearly amplified fluorescence scale."}, "4306 cells": {"test_system": "4306 cells", "test": "Hoechst 33342 side population flow cytometry with verapamil, 4306", "format": "cell-based, mouse", "conditions": "4306, verapamil 25-50 μg/ml, Hoechst 33342 flow cytometry", "experimental": "as §1, §2"}, "MOVCAR 7 NSP cells": {"test_system": "MOVCAR 7 NSP cells", "test": "MTT proliferation assay, MOVCAR 7 NSP cells", "format": "cell-based, mouse", "conditions": "for inhibition at 0.004 µM: Mus musculus, read-out: inhibition (MTT growth inhibition)", "experimental": "(§3) MTT assay was used to assess proliferation inhibition. MOVCAR 7 and 4306 cells were harvested, sorted for SPs and NSPs, and plated in the inner wells of 96-well plates at 1,000 cells per well in 200 μl of medium per well. […] At day 5 or 7 of incubation, cell viability was quantified by measuring mitochondrial activity (38) on an ELISA plate reader at an absorbance of 550 nm to generate an OD proportional to the relative abundance of live cells in a given well.\n(§4) Statistical Analysis. In MTT assays, MIS-, doxorubicin-, and paclitaxel-treated and untreated samples were analyzed by using the univariant two-tailed Student t test, with P ≦0.05conferring statistical significance. All experiments were performed in triplicate. In ovarian somatic stem cell studies, all p-values were calculated with the use of two-tailed student's t-test. Differences with p-values less than 0.05 were considered significant."}, "BCRP1 transporter": {"molecular_target": "T1, BCRP1 transporter (Homo sapiens, UniProt Q9UNQ0)", "T1 sequence (Q9UNQ0 1-655)": "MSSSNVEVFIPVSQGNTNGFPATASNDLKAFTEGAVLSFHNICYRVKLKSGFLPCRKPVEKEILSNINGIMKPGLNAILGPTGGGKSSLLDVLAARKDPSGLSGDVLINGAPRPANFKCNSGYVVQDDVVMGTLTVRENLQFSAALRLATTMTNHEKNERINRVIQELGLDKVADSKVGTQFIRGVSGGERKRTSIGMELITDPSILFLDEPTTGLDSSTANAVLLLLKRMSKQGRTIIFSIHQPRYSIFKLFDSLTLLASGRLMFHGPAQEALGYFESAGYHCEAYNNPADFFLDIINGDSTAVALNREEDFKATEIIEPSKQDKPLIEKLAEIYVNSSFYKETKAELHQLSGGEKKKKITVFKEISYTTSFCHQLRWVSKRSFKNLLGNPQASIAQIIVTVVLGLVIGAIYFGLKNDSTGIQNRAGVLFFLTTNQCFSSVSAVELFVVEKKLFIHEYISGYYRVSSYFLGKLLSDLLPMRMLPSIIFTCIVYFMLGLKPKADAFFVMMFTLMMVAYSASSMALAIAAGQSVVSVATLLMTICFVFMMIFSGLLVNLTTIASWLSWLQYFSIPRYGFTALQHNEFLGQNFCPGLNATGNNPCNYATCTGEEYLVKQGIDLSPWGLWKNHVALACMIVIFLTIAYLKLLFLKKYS", "conditions": "reference 23; cited from earlier work"}, "MOVCAR 7 SP cells": {"test_system": "MOVCAR 7 SP cells", "test": "MTT proliferation assay, MOVCAR 7 SP cells", "format": "cell-based, mouse", "conditions": "for inhibition at 0.004 µM: Mus musculus, 4 nM drug, compared with vehicle-treated controls, read-out: inhibition (MTT growth inhibition)", "experimental": "as §3, §4"}, "OVCAR 8 cells": {"test_system": "OVCAR 8 cells", "conditions": "references 25, 35; cited from earlier work"}, "[1]": {"test_system": "human anchorage-independent Mullerian tumors", "conditions": "soft agarose, reference 34; cited from earlier work"}, "MOVCAR 7 [2]": {"test_system": "MOVCAR 7", "conditions": "in vitro, reference 25; cited from earlier work"}, "4306 SP cells": {"test_system": "4306 SP cells", "test": "MTT proliferation assay, 4306 SP cells", "format": "cell-based, mouse", "experimental": "as §3, §4"}, "[3]": {"test": "Organ culture bioassay for MIS", "conditions": "purified recombinant human MIS", "experimental": "The human MIS gene was transfected into CHO cells, amplified, purified, and maintained in a dedicated facility in the Pediatric Surgical Research Laboratories for use in this study as described in ref.39. MIS levels were measured by using human MIS-specific ELISA (40). MIS was purified by a combination of lectin affinity chromatography and FPLC anion-exchange chromatography (39)."}, "MOVCAR 8 cells": {"test_system": "MOVCAR 8 cells", "conditions": "references 25, 35; cited from earlier work"}, "MOVCAR 7 [4]": {"test_system": "MOVCAR 7", "conditions": "in vivo, reference 25; cited from earlier work"}, "[5]": {"conditions": "4 nM drug, versus vehicle-treated controls"}},
  "note": "Read-outs that look alike come from different tables or passages of the source.",
  "data": [
    {"molecule": "COc1ccc(CCN(C)CCCC(C#N)(c2ccc(OC)c(OC)c2)C(C)C)cc1OC", "note": "(stereo not drawn) [Verapamil, verapamil]", "values": [
      {"measurement": "elimination of the SP", "setting": "MOVCAR 7 cells", "value": "effectively eliminated the SP"},
      {"measurement": "elimination of the SP", "setting": "4306 cells", "value": "effectively eliminated the SP"}
    ]},
    {"molecule": "COc1cccc2c1C(=O)c1c(O)c3c(c(O)c1C2=O)C[C@@](O)(C(=O)CO)C[C@@H]3O[C@H]1C[C@H](N)[C@H](O)[C@H](C)O1", "note": "[doxorubicin]", "values": [
      {"measurement": "inhibition at 0.004 µM", "setting": "MOVCAR 7 NSP cells; [5]", "value": 81, "unit": "%"},
      {"measurement": "substrate of the BCRP1 transporter", "setting": "BCRP1 transporter", "value": "is a substrate"},
      {"measurement": "inhibition at 0.004 µM", "setting": "MOVCAR 7 SP cells; MOVCAR 7 SP cells", "value": 30, "unit": "%"}
    ]},
    {"molecule": "CC(=O)O[C@H]1C(=O)[C@@]2(C)[C@H]([C@H](OC(=O)c3ccccc3)[C@]3(O)C[C@H](OC(=O)[C@H](O)[C@@H](NC(=O)c4ccccc4)c4ccccc4)C(C)=C1C3(C)C)[C@]1(OC(C)=O)CO[C@@H]1C[C@@H]2O", "note": "[paclitaxel]", "values": [
      {"measurement": "inhibition (MTT growth inhibition)", "setting": "MOVCAR 7 NSP cells; [5]", "value": 88, "unit": "%"},
      {"measurement": "inhibition at 0.004 µM", "setting": "MOVCAR 7 NSP cells; [5]", "value": 83, "unit": "%"},
      {"measurement": "inhibition at 0.004 µM", "setting": "MOVCAR 7 SP cells; MOVCAR 7 SP cells", "value": 85, "unit": "%"}
    ]},
    {"molecule": "MIS: Recombinant human Mullerian Inhibiting Substance protein (SEQ ID NO: 16), produced in CHO cells and purified (protein, listed as Homo sapiens) MRDLPLTSLALVLSALGALLGTEALRAEEPAVGTSGLIFREDLDWPPGSPQEPLCLVALGGDSNGSSSPLRVVGALSAYEQAFLGAVQRARWGPRDLATFGVCNTGDRQAALPSLRRLGAWLRDPGGQRLVVLHLEEVTWEPTPSLRFQEPPPGGAGPPELALLVLYPGPGPEVTVTRAGLPGAQSLCPSRDTRYLVLAVDRPAGAWRGSGLALTLQPRGEDSRLSTARLQALLFGDDHRCFTRMTPALLLLPRSEPAPLPAHGQLDTVPFPPPRPSAELEESPPSADPFLETLTRLVRALRVPPARASAPRLALDPDALAGFPQGLVNLSDPAALERLLDGEEPLLLLLRPTAATTGDPAPLHDPTSAPWATALARRVAAELQAAAAELRSLPGLPPATAPLLARLLALCPGGPGGLGDPLRALLLLKALQGLRVEWRGRDPRGPGRAQRSAGATAADGPCALRELSVDLRAERSVLIPETYQANNCQGVCGWPQSDRNPRYGNHVVLLLKMQARGAALARPPCCVPTAYAGKLLISLSEERISAHHVPNMVATECGCR", "values": [
      {"measurement": "inhibition of OVCAR 8 cells", "setting": "OVCAR 8 cells", "value": "inhibits"},
      {"measurement": "inhibition of anchorage-independent tumors", "setting": "[1]", "value": "inhibits"},
      {"measurement": "inhibition of MOVCAR 7", "setting": "MOVCAR 7 [2]", "value": "inhibit"},
      {"measurement": "inhibition by MIS (MTT)", "setting": "4306 SP cells; 4306 SP cells after sort 2, 10 μg/ml MIS", "value": 60, "unit": "%"},
      {"measurement": "inhibition by MIS (MTT)", "setting": "4306 SP cells; 4306 SP cells after sort 3, 10 μg/ml MIS, not significant", "value": 17, "unit": "%"},
      {"measurement": "inhibition by MIS (MTT)", "setting": "4306 SP cells; 4306 SP cells, first sort, 10 μg/ml MIS, vs. vehicle control", "value": 37, "unit": "%"},
      {"measurement": "inhibition by MIS (MTT)", "setting": "MOVCAR 7 NSP cells; first sort, 10 μg/ml MIS, versus vehicle", "value": 93, "unit": "%"},
      {"measurement": "regression in organ culture bioassay", "setting": "[3]", "value": "causes regression"},
      {"measurement": "inhibition of MOVCAR 8 cells", "setting": "MOVCAR 8 cells", "value": "inhibits"},
      {"measurement": "inhibition of MOVCAR 7", "setting": "MOVCAR 7 [4]", "value": "inhibit"},
      {"measurement": "inhibition by MIS (MTT)", "setting": "MOVCAR 7 SP cells; MOVCAR 7 SP cells after sort 2, 10 μg/ml MIS", "value": 93, "unit": "%"},
      {"measurement": "inhibition by MIS (MTT)", "setting": "MOVCAR 7 SP cells; MOVCAR 7 SP cells after sort 3, 10 μg/ml MIS", "value": 94, "unit": "%"},
      {"measurement": "inhibition by MIS (MTT)", "setting": "MOVCAR 7 SP cells; MOVCAR 7 SP cells, first sort, 10 μg/ml MIS, versus vehicle", "value": 86, "unit": "%"}
    ]}
  ]
}
